From PMC9712102

Assays:
[1] = target: Gp57, purified (phage SECΦ27); experiment: SEC-MALS; co-purified CapRel^SJ46–Gp57 complex at 5 mg ml^−1; 50 mM HEPES pH 7.5, 500 mM KCl, 500 mM NaCl, 10 mM MgCl2, 1 mM TCEP, 0.002% mellitic acid
[2] = target: Gp57 (L114P I115F), purified (phage SECΦ27); experiment: ITC; CapRel^SJ46 (or variant) at 150 μM in the syringe titrated into Gp57 (or variant) at 10 μM in the cell; 25 °C; 50 mM HEPES pH 7.5, 500 mM KCl, 500 mM NaCl, 150 mM imidazole, 10 mM MgCl2, 1 mM TCEP, 0.002% mellitic acid
[3] = target: Gp57, purified (phage SECΦ27); experiment: as above
CapRel^SJ46–Flag = experiment: immunoprecipitation followed by mass spectrometry
[4] = target: CapRel^SJ46, purified full-length; experiment: ITC; details: CapRelSJ46 titrated into Gp57(L114P I115F)

Substance: CapRel^SJ46(Y155A), co-purified with Gp57 (natural protein)
- stoichiometry N [1]: 1

Substance: CapRel^SJ46, purified full-length (natural protein)
- fold decrease in affinity against wild-type Gp57 [2]: > 60 fold
- stoichiometry N [3]: 1

Substance: Gp57, major capsid protein of SECΦ27, made by wild-type phage during infection L114P
- response (SC(Gp57)/SC(CapRelSJ46)) (CapRel^SJ46–Flag; 40 min after infection, bar = mean of 2 biological replicates, parent: est. 0.33, read off a plot): 0.07
- response (spectral counts (SC)) (CapRel^SJ46–Flag; replicate1, 15 min after infection, CapRelSJ46 SC 276 (L114P mutant), 286 (WT), parent: 12): 0
- response (spectral counts (SC)) (CapRel^SJ46–Flag; replicate1, 40 min after infection, CapRelSJ46 SC 251 (L114P mutant), 217 (WT), parent: 64): 25
- response (spectral counts (SC)) (CapRel^SJ46–Flag; replicate2, 15 min after infection, CapRelSJ46 SC 145 (L114P mutant), 161 (WT), parent: 0): 0
- response (spectral counts (SC)) (CapRel^SJ46–Flag; replicate2, 40 min after infection, CapRelSJ46 SC 156 (L114P mutant), 138 (WT), parent: 52): 6

Substance: Gp57, purified L114P; I115F
- Kd [4]: 23.7 µM
